Data on 6 proteins can be found in paper PMC10976588.

A short description of series [1]: MitoSOX staining in organoids. Particulars: glycan lost; control: WT organoids.
Series [2] in a line: JC-1 staining in organoids. Particulars: glycan lost; control: WT organoids.
Series [3] is described as follows: complex I, III, IV, V activity kits. Particulars: glycan lost; control: WT organoids.
The nature of series [4]: Western blot, whole-cell lysate. Particulars: glycan changed form; control: WT crypts. (In general: A western blot detects proteins with antibodies after separation by electrophoresis.)
A short description of series [5]: Western blot of lysosome fractions after CCCP. Conditions: glycan lost; control: WT organoids.
Series [6] is described as follows: Western blot of Pink1, pS65-Ub, whole-cell lysate. Particulars: glycan lost; control: WT organoids.

B1: N-acyl sphingosine amidohydrolase 2 (Asah2): Asah2-N444Q (protein)
parent chain: MAKRTFSTLEAFLIFLLVIMTVITVALLTLLFVTSGTIENHKDSGNHWFSTTLGSTTTQPPPITQTPNFPSFRNFSGYYIGVGRADCTGQVSDINLMGYGKNGQNARGLLTRLFSRAFILADPDGSNRMAFVSVELCMISQRLRLEVLKRLESKYGSLYRRDNVILSAIHTHSGPAGFFQYTLYILASEGFSNRTFQYIVSGIMKSIDIAHTNLKPGKIFINKGNVANVQINRSPSSYLLNPQSERARYSSNTDKEMLVLKLVDLNGEDLGLISWFAIHPVSMNNSNHFVNSDNMGYAAYLFEQEKNKGYLPGQGPFVAGFASSNLGDVSPNILGPHCVNTGESCDNDKSTCPNGGPSMCMASGPGQDMFESTHIIGRIIYQKAKELYASASQEVTGPVLAAHQWVNMTDVSVQLNATHTVKTCKPALGYSFAAGTIDGVSGLNITQGTTEGDPFWDTLRDQLLGKPSEEIVECQKPKPILLHSGELTIPHPWQPDIVDVQIVTVGSLAIAAIPGELTTMSGRRFREAIKKEFALYGMKDMTVVIAGLSNVYTHYITTYEEYQAQRYEAASTIYGPHTLSAYIQLFRDLAKAIATDTVANMSSGPEPPFFKNLIASLIPNIADRAPIGKHFGDVLQPAKPEYRVGEVVEVIFVGANPKNSAENQTHQTFLTVEKYEDSVADWQIMYNDASWETRFYWHKGILGLSNATIYWHIPDTAYPGIYRIRYFGHNRKQELLKPAVILAFEGISSPFEVVTT
Consider B1, for which, in series [1], the “other: mitochondrial ROS level” value is “increases”. In addition, the “other: mitochondrial membrane potential” value in series [2] is reported as “decreases”. The “other: respiratory chain complex activity” value in series [3] is given as “decreases”.

B2: N-acyl sphingosine amidohydrolase 2 (Asah2): Fut2ΔISC (protein)
parent chain: MAKRTFSTLEAFLIFLLVIMTVITVALLTLLFVTSGTIENHKDSGNHWFSTTLGSTTTQPPPITQTPNFPSFRNFSGYYIGVGRADCTGQVSDINLMGYGKNGQNARGLLTRLFSRAFILADPDGSNRMAFVSVELCMISQRLRLEVLKRLESKYGSLYRRDNVILSAIHTHSGPAGFFQYTLYILASEGFSNRTFQYIVSGIMKSIDIAHTNLKPGKIFINKGNVANVQINRSPSSYLLNPQSERARYSSNTDKEMLVLKLVDLNGEDLGLISWFAIHPVSMNNSNHFVNSDNMGYAAYLFEQEKNKGYLPGQGPFVAGFASSNLGDVSPNILGPHCVNTGESCDNDKSTCPNGGPSMCMASGPGQDMFESTHIIGRIIYQKAKELYASASQEVTGPVLAAHQWVNMTDVSVQLNATHTVKTCKPALGYSFAAGTIDGVSGLNITQGTTEGDPFWDTLRDQLLGKPSEEIVECQKPKPILLHSGELTIPHPWQPDIVDVQIVTVGSLAIAAIPGELTTMSGRRFREAIKKEFALYGMKDMTVVIAGLSNVYTHYITTYEEYQAQRYEAASTIYGPHTLSAYIQLFRDLAKAIATDTVANMSSGPEPPFFKNLIASLIPNIADRAPIGKHFGDVLQPAKPEYRVGEVVEVIFVGANPKNSAENQTHQTFLTVEKYEDSVADWQIMYNDASWETRFYWHKGILGLSNATIYWHIPDTAYPGIYRIRYFGHNRKQELLKPAVILAFEGISSPFEVVTT
On to B2, for which the expression_or_secretion result in series [4] is recorded as “no change”.

B3: Niemann–Pick type C intracellular cholesterol transporter 1 (Npc1): Npc1-N961Q (protein)
parent chain: MGAHHPALGLLLLLLCPAQVFSQSCVWYGECGIATGDKRYNCKYSGPPKPLPKDGYDLVQELCPGLFFDNVSLCCDIQQLQTLKSNLQLPLQFLSRCPSCFYNLMTLFCELTCSPHQSQFLNVTATEDYFDPKTQENKTNVKELEYFVGQSFANAMYNACRDVEAPSSNEKALGLLCGRDARACNATNWIEYMFNKDNGQAPFTIIPVFSDLSILGMEPMRNATKGCNESVDEVTGPCSCQDCSIVCGPKPQPPPPPMPWRIWGLDAMYVIMWVTYVAFLFVFFGALLAVWCHRRRYFVSEYTPIDSNIAFSVNSSDKGEASCCDPLGAAFDDCLRRMFTKWGAFCVRNPTCIIFFSLAFITVCSSGLVFVQVTTNPVELWSAPHSQARLEKEYFDKHFGPFFRTEQLIIQAPNTSVHIYEPYPAGADVPFGPPLNKEILHQVLDLQIAIESITASYNNETVTLQDICVAPLSPYNKNCTIMSVLNYFQNSHAVLDSQVGDDFYIYADYHTHFLYCVRAPASLNDTSLLHGPCLGTFGGPVFPWLVLGGYDDQNYNNATALVITFPVNNYYNDTERLQRAWAWEKEFISFVKNYKNPNLTISFTAERSIEDELNRESNSDVFTVIISYVVMFLYISLALGHIQSCSRLLVDSKISLGIAGILIVLSSVACSLGIFSYMGMPLTLIVIEVIPFLVLAVGVDNIFILVQTYQRDERLQEETLDQQLGRILGEVAPTMFLSSFSETSAFFFGALSSMPAVHTFSLFAGMAVLIDFLLQITCFVSLLGLDIKRQEKNHLDILCCVRGADDGQGSHASESYLFRFFKNYFAPLLLKDWLRPIVVAVFVGVLSFSVAVVNKVDIGLDQSLSMPNDSYVIDYFKSLAQYLHSGPPVYFVLEEGYNYSSRKGQNMVCGGMGCDNDSLVQQIFNAAELDTYTRVGFAPSSWIDDYFDWVSPQSSCCRLYNVTHQFCNASVMDPTCVRCRPLTPEGKQRPQGKEFMKFLPMFLSDNPNPKCGKGGHAAYGSAVNIVGDDTYIGATYFMTYHTILKTSADYTDAMKKARLIASNITETMRSKGSDYRVFPYSVFYVFYEQYLTIIDDTIFNLSVSLGSIFLVTLVVLGCELWSAVIMCITIAMILVNMFGVMWLWGISLNAVSLVNLVMSCGISVEFCSHITRAFTMSTKGSRVSRAEEALAHMGSSVFSGITLTKFGGIVVLAFAKSQIFEIFYFRMYLAMVLLGATHGLIFLPVLLSYIGPSVNKAKRHTTYERYRGTERERLLNF
Regarding B3, in series [5], the “other: mitophagy, delivery of mitochondrial proteins to lysosomes” value is listed as “decreases”. The “other: mitochondrial ROS level” value in series [1] was “increases”. The “other: mitophagy activation by CCCP” value in series [6] is listed as “no change”. In series [2], the “other: mitochondrial membrane potential” value was “decreases”.

B4: Niemann–Pick type C intracellular cholesterol transporter 1 (Npc1): Fut2ΔISC (protein)
parent chain: MGAHHPALGLLLLLLCPAQVFSQSCVWYGECGIATGDKRYNCKYSGPPKPLPKDGYDLVQELCPGLFFDNVSLCCDIQQLQTLKSNLQLPLQFLSRCPSCFYNLMTLFCELTCSPHQSQFLNVTATEDYFDPKTQENKTNVKELEYFVGQSFANAMYNACRDVEAPSSNEKALGLLCGRDARACNATNWIEYMFNKDNGQAPFTIIPVFSDLSILGMEPMRNATKGCNESVDEVTGPCSCQDCSIVCGPKPQPPPPPMPWRIWGLDAMYVIMWVTYVAFLFVFFGALLAVWCHRRRYFVSEYTPIDSNIAFSVNSSDKGEASCCDPLGAAFDDCLRRMFTKWGAFCVRNPTCIIFFSLAFITVCSSGLVFVQVTTNPVELWSAPHSQARLEKEYFDKHFGPFFRTEQLIIQAPNTSVHIYEPYPAGADVPFGPPLNKEILHQVLDLQIAIESITASYNNETVTLQDICVAPLSPYNKNCTIMSVLNYFQNSHAVLDSQVGDDFYIYADYHTHFLYCVRAPASLNDTSLLHGPCLGTFGGPVFPWLVLGGYDDQNYNNATALVITFPVNNYYNDTERLQRAWAWEKEFISFVKNYKNPNLTISFTAERSIEDELNRESNSDVFTVIISYVVMFLYISLALGHIQSCSRLLVDSKISLGIAGILIVLSSVACSLGIFSYMGMPLTLIVIEVIPFLVLAVGVDNIFILVQTYQRDERLQEETLDQQLGRILGEVAPTMFLSSFSETSAFFFGALSSMPAVHTFSLFAGMAVLIDFLLQITCFVSLLGLDIKRQEKNHLDILCCVRGADDGQGSHASESYLFRFFKNYFAPLLLKDWLRPIVVAVFVGVLSFSVAVVNKVDIGLDQSLSMPNDSYVIDYFKSLAQYLHSGPPVYFVLEEGYNYSSRKGQNMVCGGMGCDNDSLVQQIFNAAELDTYTRVGFAPSSWIDDYFDWVSPQSSCCRLYNVTHQFCNASVMDPTCVRCRPLTPEGKQRPQGKEFMKFLPMFLSDNPNPKCGKGGHAAYGSAVNIVGDDTYIGATYFMTYHTILKTSADYTDAMKKARLIASNITETMRSKGSDYRVFPYSVFYVFYEQYLTIIDDTIFNLSVSLGSIFLVTLVVLGCELWSAVIMCITIAMILVNMFGVMWLWGISLNAVSLVNLVMSCGISVEFCSHITRAFTMSTKGSRVSRAEEALAHMGSSVFSGITLTKFGGIVVLAFAKSQIFEIFYFRMYLAMVLLGATHGLIFLPVLLSYIGPSVNKAKRHTTYERYRGTERERLLNF
For the protein B4, the expression_or_secretion entry in series [4] is “no change”.

B5: basigin (Bsg): Bsg-N306Q (protein)
parent chain: MAAALLLALAFTLLSGQGACAAAGFLKAPLSQERWAGGSVVLHCEAVGSPIPEIQWWFEGNAPNDSCSQLWDGARLDRVHIHAAYRQHAASSLSVDGLTAEDTGTYECRASSDPDRNHLTRPPRVKWVRAQASVVVLEPGTIQTSVQEVNSKTQLTCSLNSSGVDIVGHRWMRGGKVLQEDTLPDLHTKYIVDADDRSGEYSCIFLPEPVGRSEINVEGPPRIKVGKKSEHSSEGELAKLVCKSDASYPPITDWFWFKTSDTGEEEAITNSTEANGKYVVVSTPEKSQLTISNLDVNVDPGTYVCNATNAQGTTRETISLRVRSRMAALWPFLGIVAEVLVLVTIIFIYEKRRKPDQTLDEDDPGAAPLKGSGTHMNDKDKNVRQRNAT
With B5, in series [1], the “other: mitochondrial ROS level” value is “no change”. The “other: mitochondrial membrane potential” value in series [2] was “no change”.

B6: basigin (Bsg): Fut2ΔISC (protein)
parent chain: MAAALLLALAFTLLSGQGACAAAGFLKAPLSQERWAGGSVVLHCEAVGSPIPEIQWWFEGNAPNDSCSQLWDGARLDRVHIHAAYRQHAASSLSVDGLTAEDTGTYECRASSDPDRNHLTRPPRVKWVRAQASVVVLEPGTIQTSVQEVNSKTQLTCSLNSSGVDIVGHRWMRGGKVLQEDTLPDLHTKYIVDADDRSGEYSCIFLPEPVGRSEINVEGPPRIKVGKKSEHSSEGELAKLVCKSDASYPPITDWFWFKTSDTGEEEAITNSTEANGKYVVVSTPEKSQLTISNLDVNVDPGTYVCNATNAQGTTRETISLRVRSRMAALWPFLGIVAEVLVLVTIIFIYEKRRKPDQTLDEDDPGAAPLKGSGTHMNDKDKNVRQRNAT
As to B6, the expression_or_secretion result in series [4] is reported as “no change”.
